# From the DeepSol protein solubility set
# Assay: soluble on expression in E. coli; label from the status in PepcDB or PDB records
row,Sequence,soluble on expression in E. coli
1,MGSDKIHHHHHHAASVTPSSALLKKSNSYYRSHARALGKKYKLAFDAQSALKKNGKAVIYVNTKDKTLNQSVKLAMAYWNKKLGKTEFTQGSKKNHTLTFGVSTAAASKSDQSDAWWTPMTKKLDVRWSYYTAEKQNIGISMTNQLNKAFYKQYADTIETKAKANLAAKGITTSDKDYLSPFNREASNVETSLPAYTTLKKDVCLVKSTLANEGRKYEYASTIAHEMGHVMGLNHSPNKQDLMYFESGNNNVYSFKKVKAGLSKYNPITTTDKNRAKLALKIYVAAH,not soluble
2,MYYPFVRKALFQLDPERAHEFTFQQLRRITGTPFEALVRQKVPAKPVNCMGLTFKNPLGLAAGLDKDGECIDALGAMGFGSIEIGTVTPRPQPGNDKPRLFRLVDAEGLINRMGFNNLGVDNLVENVKKAHYDGVLGINIGKNKDTPVEQGKDDYLICMEKIYAYAGYIAINISSPNTPGLRTLQYGEALDDLLTAIKNKQNDLQAMHHKYVPIAVKIAPDLSEEELIQVADSLVRHNIDGVIATNTTLDRSLVQGMKNCDQTGGLSGRPLQLKSTEIIRRLSLELNGRLPIIGVGGIDSVIAAREKIAAGASLVQIYSGFIFKGPPLIKEIVTHI,soluble
3,PNFSGNWKIIRSENFEELLKVLGVNVMLRKIAVAAASKPAVEIKQEGDTFYIKVSTTVRTTEINFKVGEEFEEQTVDGRPCKSLVKWESENKMVCEQKLLKGEGPKTSWTLELTNDGELIDTMTADDVVCTKVFVRE,soluble
4,MRHNIFYNRREFQMIDNFMQVLKLIKEKRTNNVVKKSDWDKGDLYKTLVHDKLPKQLKVHIKEDKYSVVGKVATGNYSKVPWISIYDENITKETKDGYYLVYLFHPEGEGIYLSLNQGWSKISDMFPRDKNAAKQRALTLSSELNKYITSNEFNTGRFYYAENKDSSYDLKNDYPSGYSHGSIRFKYYDLNEGFTEEDMLEDLKKFLELFNELASKVTKTSYDSLVNSIDEIQEDSEIEEIRTAQKDKTLKEVEAPKGIIPKYKKGVSKTTKNDSEIEKSNKENKLTGKVGEKLALNYFNELIDNKIDEDKKEQFRNILNDNPGSQHGHGYDLVAFDPTNTDKAVEKFIEIKTSTSSSIEEPFFMSLNEMFAMKEYKQKYLILRIFNVSGKEPQFYFIDPYANYSEFKDVDDLIDKVFNVEAIQYKVFGEKLEHHHHHH,not soluble
5,MQVFIMRHGDAALDAASDSVRPLTTNGCDESRLMANWLKGQKVEIERVLVSPFLRAEQTLEEVGDCLNLPSSAEVLPELTPCGDVGLVSAYLQALTNEGVASVLVISHLPLVGYLVAELCPGETPPMFTTSAIASVTLDESGKGEFNWQMSPCNLKMAKAI,soluble
6,MKIDYLTLFPEMFDGVLNHSIMKRAQENNKLQINTVNFRDYAINKHNQVDDYPYGGGQGMVLKPEPVFNAMEDLDVTEQTRVILMCPQGEPFSHQKAVELSKADHIVFICGHYEGYDERIRTHLVTDEISMGDYVLTGGELPAMTMTDAIVRLIPGVLGNEQSHQDDSFSDGLLEFPQYTRPREFKGLTVPDVLLSGNHANIDAWRHEQKLIRTYNKRPDLIEKYPLTNEDKQILERYKIGLKKG,not soluble
7,MKDQLGFRIVLCSAVFIILTQNRALADLDSESHEVNSESVGEEQWEMVQRKGMQFTLNGQPFYVNGFNTYWMMTLAADNSTRGKVTEVFQQASAVGMTVGRTWAFNDGQWRALQKSPSVYDEEVFKALDFVLSEARKYKIRLILSLVNNWDAYGGKAQYVKWGNASGLNLTSDDDFFTNPTLRNFYQSHVRTVLNRVNTFTNITYKNDPTIFAWELMNEPRCPSDPSGDKLQSWIQEMAVFVKSLDAKHLVEIGLEGFYGPSAPARTRFNPNPYAAQVGTDFIRNNQVLGIDFASVHVYPDSWISPAVSNSFLEFTSSWMQAHVEDAEMYLGMPVLFTEFGVSAHDPGFNTSFRDMMLNTVYKMTLNSTRKGGAGAGSLVWQVFPQGAEFMDDGYAVYLTRAHTASKIISLQSKRLAIFNSLCSWRCRWGCKKKNQTALDALLSHDEL,soluble
8,MLDKLRSRLVHAGPSLMSVPVKLTPFALKRQVLEQVLSWQFRQALADGELEFLEGRWLSIHVRDIDLKWYTTVENEKLIVSQQADADVSFSADASDLLMIAARKQDPDTLFFQRRLVIEGDTELGLYVKNLMDAIELEQMPKALRVMLLQLADFVEAGMKNSPETKQTSVGEPC,not soluble
9,MGSDKIHHHHHHENLYFQGMLIEIPNVFSKQEVSHLREQLDARRWIDGNQTSGAMATTRKRNQQLDKDDPVAVALGQQIMDRLLAHPQFVSAALPLQFYPPLFNRYQGGETFGYHIDNAIRSTPDGMIRTDLSATLFLSEPENYQGGELVIQDTYGQQSIKLSAGSLVLYPSSSLHQVTPVLSGERTAAFMWLQSMVRDEGQRRLLFQLDQSIQSLTAQTAAEQELFNLSGVYHNLLRRWSEL,soluble
